Assays:
Assay in all cases: SEC-MALS
[1] = target: CdChdC variant H118A/Y135A (Corynebacterium diphtheriae) (UniProt Q6NGV6)
[2] = target: CdChdC variant H118A (Corynebacterium diphtheriae) (UniProt Q6NGV6)
[3] = target: CdChdC variant Y135A (Corynebacterium diphtheriae) (UniProt Q6NGV6)
[4] = target: the molecule itself

CdChdC variant H118A/Y135A (from UniProt Q6NGV6 1-234) (enzyme)
stoichiometry N [1]: 5

CdChdC variant H118A (from UniProt Q6NGV6 1-234) (enzyme)
stoichiometry N [2]: 5

CdChdC variant Y135A (from UniProt Q6NGV6 1-234) (enzyme)
stoichiometry N [3]: 5

B1: coproheme decarboxylase from Corynebacterium diphtheriae (CdChdC), wild-type (enzyme)
chain: MAEKLNFEELNSMQRYSQFAVFRAIPGALGSDRAEIVAQAQSFFDGLETAGKVEVRGIYDLAGCRAEADFMIWWIAEEFEEIQAAFARFRRETVLGQVSEVAWLGNSLHRPAEFNRSHLPSFIMGEIPGDWITVYPFVRSYDWYIMDPQKRRKILAEHGQAARDFPDVRANTVPAFALGDYEWMLAFEAPRLDRIVDLMHKMRYTEARLHVREETPFFTGRRVSEVSELVNVLP
stoichiometry N [4]: 5
